Data from the supplement of paper PMC9170038.

Tested on: MS2 coat protein
Assay: apparent KD of MS2 coat protein; designed switch direction (-1 OFF switch, 1 ON switch): 1; higher = weaker reporter binding
Method in brief: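 Each step of the titration lasted 0.8–1.5 h at the lowest concentration and 10–20 min at the highest. The protein, SNAP-549-labelled MS2 coat protein, went from 0.7 or 1.5 nM doubling to 3 µM over RNA switches transcribed on Illumina chips by stalled E. coli RNA polymerase. Normalised cluster fluorescence was curve-fitted, and the per-design median over clusters is given as apparent KD.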

[1] = input ligand: microRNA oligo, concentration not stated
[2] = Eterna round: R95, input ligand: FMN 200 uM
[3] = Eterna round: R95, input ligand: microRNA oligo, concentration not stated
[4] = Eterna round: R95, input ligand: none

| Sequence | apparent KD of MS2 coat protein (input ligand: FMN 200 uM) [nM] | apparent KD of MS2 coat protein [1] [nM] | apparent KD of MS2 coat protein (input ligand: none) [nM] | apparent KD of MS2 coat protein [2] [nM] | apparent KD of MS2 coat protein [3] [nM] | apparent KD of MS2 coat protein [4] [nM] |
| --- | --- | --- | --- | --- | --- | --- |
| GUUACAUGAGGAUCACCCAUGUAUGUGUGGGAGUAAGUGUCUUAGGAUAUCUGAUAUUUAAUUUAAGAGAAGGAAGAUUGUUGU [JMF's solution 29] (Eterna round: R96, puzzle: Same State NG 3) | 119 | 69.6 | 85.5 |  |  |  |
| GUUACAUGAGGAUCACCCAUGUAUGUGUGGGAGUAAGUGUCUUAGGAUAUCUGUGAUUUAAUUUAAGAGAAGGAAGAUUGUUGU [JMF's solution 32] (Eterna round: R96, puzzle: Same State NG 3) | 126 | 71.6 | 96.1 |  |  |  |
| GUUACAUGAGGAUCACCCAUGUGUGUGUGGGAGUGAGUGGCUUAGGAUAUCUAUGAUUUUAGUUGAGAGAAGGAGGAUUGCUGU [SS-NG3-LRO08] (Eterna round: R96, puzzle: Same State NG 3) | 439 | 158 | 347 |  |  |  |
| GUUAGGAAUCUAGCAAACAUGAGGAUCACCCAUGUAAGUGGGAAGGAUAUGGUACAGAAACUGUACCAGAAGGUCUUAUUAAUU [Omei SS(NG) 3 AV1] (Eterna round: R96, puzzle: Same State NG 3) | 128 | 246 | 306 |  |  |  |
| UAAAAUAACACAGGAUAUGCAGACAACUCGUCGGCAGAAGGGUGAGACAUGAGGAUCACCCAUGUAAAAUAAGGGCGCCGCCCG [Diatera] (Eterna round: R96, puzzle: Same State NG 1) | 995 | 219 | 777 |  |  |  |
| UAAAUACAUGAGGAUCACCCAUGUCAAAAGACAUGAGGAUAUGUACAGACUUCGGUCUGUACAGAAGGCAUGAAUA [salish99_ss1_r3_096] (Eterna round: R96, puzzle: Same State 1) |  | 417 |  |  |  |  |
| UAAAUACAUGAGGAUCACCCAUGUCAAAAGACAUGAGGAUAUGUACAGACUUCGGUCUGUACAGAAGGCAUGAAUA [salish99_ss1_r3_096] (puzzle: Same State 1) |  |  |  | 34.4 | 294 | 566 |
| UAAGGACAUGAGGAUCACCCAUGUGCUUCAUAUGGAGAAUCUCAGGAUAUCCUGAGGAUCACCCAGGAGAAGGGAGAUCCGAGG (Eterna round: R96, puzzle: Same State NG 3) | 288 | 191 | 225 |  |  |  |
| UAAGGACAUGAGGAUCACCCAUGUGCUUCAUAUGGAGAAUCUCAGGAUAUGCUGAGGAUCACCCAGCAGAAGGGAGAUCCGAGG (Eterna round: R96, puzzle: Same State NG 3) | 71.9 | 93 | 120 |  |  |  |
| UAAUUAAAGCAAGGAUAUCACGUCGAUUAGACGUGAGAAGGUGCUCCUUACAUGAGGAUCACCCAUGUAUAACAUGAAUAAUUA [SSNG1/10-B2] (Eterna round: R96, puzzle: Same State NG 1) | 169 | 522 | 792 |  |  |  |
| UACUUCAUGUAAGGAUAUGCAGCCGUUUCGGCUGCAGAAGGUACUAUAAUACAUGAGGAUCACCCAUGUCUCUCGCAUUGCGAG [JL SSNG1 1.50] (Eterna round: R96, puzzle: Same State NG 1) | 53.6 | 86.2 | 158 |  |  |  |
| UAGAAACAUGAGGAUCACCCAUGUGUCAAAGACAUAGGAUAUCAUAACUGGCGCCAGUUAUGAGAAGGGUGGUAAA [Belezaqu] (puzzle: Same State 1) |  |  |  | 33.8 | 52.6 | 170 |
| UAGAGAGGAAGCGAGGAUAUCGUGUGAGGUACAUGAGGAUCACCCAUGUUUGAUGUUGAGAGAGGCGAGAAGGCGCAGGAGAUAA [JR_SS2_Sub085] (puzzle: Same State 2) |  |  |  | 31.9 | 32.4 | 34.1 |
| UAGAGAGGAAGCGAGGAUAUCGUGUUAGGUACAUGAGGAUCACCCAUGUUUUAAGUAGAGAUAGGCGAGAAGGCGCAGGAGAAGA [JR_SS2_Sub089] (puzzle: Same State 2) |  |  |  | 38 | 20.1 | 28 |
| UAGUGCGUUAGAGGAUAUUCUAAAAAAAAAAAAAAGACAUGAGGAUCACCCAUGUAUGUACAUGGGAAGAAGGCUGAUGUGCUA [Omei SS(NG)2 B] (Eterna round: R96, puzzle: Same State NG 2) | 75.9 | 352 | 551 |  |  |  |
| UAUAAACAUGAGGAUCACCCAUGUAAUAAUAUGGGAGGAUAUCAGAAUGUAUGUAUGUAAUGAGAAGGCCUAAUAU [Mat - Same State 1 - Mod of Eli - D70] (puzzle: Same State 1) |  |  |  | 54.4 | 268 | 1270 |

| Sequence | apparent KD of MS2 coat protein (input ligand: FMN 200 uM) [nM] | apparent KD of MS2 coat protein [1] [nM] | apparent KD of MS2 coat protein (input ligand: none) [nM] | apparent KD of MS2 coat protein [2] [nM] | apparent KD of MS2 coat protein [3] [nM] | apparent KD of MS2 coat protein [4] [nM] |
| --- | --- | --- | --- | --- | --- | --- |
| UAUAAACAUGAGGAUCACCCAUGUAAUAAUAUGGGAGGAUAUCAGAAUGUAUUUAUUUAAUGAGAAGGCCUAAUAU [Mat - Same State 1 - Mod of Eli - D68] (puzzle: Same State 1) |  |  |  | 46.4 | 532 | 645 |
| UAUAUUAUGGUAGGAUAUGUAGGAUAUGGCGAGAGCUAAGCUUGGAAGUCACUUCAGCCAGAAGGACAGAAGGACCAUAAUAUU [pwkr ssNG2 2FMN + F9.9] (Eterna round: R96, puzzle: Same State NG 2) | 16.6 | 127 | 216 |  |  |  |
| UAUCGUUUGAUAGGAUAUCGCUAUACAUGAGGAUCACCCAUGUUUACCACGCUGGUUUUUCAUACCGAGAAGGAUUCUGAUGAG [salish99_SSNG02_r04_005] (Eterna round: R96, puzzle: Same State NG 2) | 36.3 | 33.2 | 42.2 |  |  |  |
| UAUGAAUAGCAAGGAUAUUGAUAACAUGAGGAUCACCCAUGUAAUUGAUUGAGAAAGAUUAGUUACAAGAAGGUGCAAUUGAUU [JR_SSNG2_Sub034] (Eterna round: R96, puzzle: Same State NG 2) | 282 | 441 | 311 |  |  |  |
| UAUGACUUACAAGGAUAUUAAUGACAUGAGGAUCACCCAUGUGGCUGUGUAUGUUAGAUAAGCAUUAAGAAGGUGUGCGAGUCU [JR_SSNG2_Sub097] (Eterna round: R96, puzzle: Same State NG 2) | 30.7 | 23.2 | 25.4 |  |  |  |
| UAUUAGAUCCGAGGAUAUCCUUAUUACAAACAUGAGGAUCACCCAUGUAAAGGGAAUGAGUUGUAGGAGAAGGCGGAUUUAGUU [JR_SSNG2_Sub057] (Eterna round: R96, puzzle: Same State NG 2) | 33.5 | 33 | 51 |  |  |  |
| UAUUUAAUCAUAGGAUAUAGUGUGAAAUUUGGACUAGAAGGAUGUAACAUGAGGAUCACCCAUGUGGUAAGUGGGAUACAUUCC [JR_SSNG1_Sub098] (Eterna round: R96, puzzle: Same State NG 1) | 110 | 75 | 117 |  |  |  |
| UCAAGCGUUUGGCUCGUCUUAUGUUUGGUACAUGAGGAUCACCCAUGUUAGGGACGAUCCAGUUAGAUGGAAUUUUG [JR_SHM208A_Sub036] (puzzle: Sensor for hsa-mir-208a) |  |  |  | 36.5 | 637 | 45.6 |
| UCGGGCGUACUUGCUGACAUGAGGAUCACCCAUGUAAAUGGGAAGGAUAUGGUACCGUUUCGGUACCAGAAGGUCCUGGGUGCU [salish99_SSNG3_r04_309] (Eterna round: R96, puzzle: Same State NG 3) | 2270 | 674 | 3840 |  |  |  |
| UCGGGCGUACUUGCUGACAUGAGGAUCACCCAUGUAAAUGGGAAGGAUAUGGUUCCGUUUCGGUUCCAGAAGGUCCUGGGUGCU [salish99_SSNG3_r04_311] (Eterna round: R96, puzzle: Same State NG 3) | 886 | 1140 | 1180 |  |  |  |
| UCGGGCGUACUUGCUGACAUGAGGAUCACCCAUGUCCUUGGGAAGGAUAUGGUUCCGUUUCGGUUCCAGAAGGUCCUGGCUGCU [salish99_SSNG3_r04_317] (Eterna round: R96, puzzle: Same State NG 3) | 30.1 | 42.6 | 78.2 |  |  |  |
| UCUGCUGCCCAAGGAUAUCAGCGUGGUAUCCACAUGAGGAUCACCCAUGUAGGUCAGCACUACCCUGAGAAGGUGGGAAAAUAA [Eternabot solution 2] (Eterna round: R96, puzzle: Same State NG 2) | 14.4 | 10.6 | 15.1 |  |  |  |
| UCUUGGUUUUUGCUCGUUUUUUGUGUUGAACAUGAGGAUCACCCAUGUAUUGUACGGUCCAAUUUAAUAAUGGUCCG [JMF 23] (puzzle: Sensor for hsa-mir-208a) |  |  |  | 26.3 | 14.3 | 26.9 |
| UCUUGGUUUUUGCUCGUUUUUUGUGUUGAACAUGAGGAUCACCCAUGUAUUGUACGGUCCAAUUUGGUGGUAGUCCG [JMF 68] (puzzle: Sensor for hsa-mir-208a) |  |  |  | 40.4 | 29.6 | 46.9 |
| UCUUGGUUUUUGCUCGUUUUUUGUGUUGAACAUGAGGAUCACCCAUGUAUUGUACGGUCCAGUUUAAUAGUGGUCCG [JMF 31] (puzzle: Sensor for hsa-mir-208a) |  |  |  | 25.8 | 13.4 | 23.8 |
